The values below come from PMC1361355.

Experiment [1] concerns the target human ephrinB2 stably expressed on CHO-pgsA745 cells (CHO-B2) (human) (UniProt P52799). Put plainly: flow cytometry on cells. (In flow cytometry, cells or beads pass a laser one at a time.)
The target in experiment [2] is ephrinB2 (Homo sapiens) (UniProt P52799). As to conditions: cited from earlier work.

The term Kd denotes the concentration at which binding is half-saturated.

EphB4, sequence (P54760 16-539): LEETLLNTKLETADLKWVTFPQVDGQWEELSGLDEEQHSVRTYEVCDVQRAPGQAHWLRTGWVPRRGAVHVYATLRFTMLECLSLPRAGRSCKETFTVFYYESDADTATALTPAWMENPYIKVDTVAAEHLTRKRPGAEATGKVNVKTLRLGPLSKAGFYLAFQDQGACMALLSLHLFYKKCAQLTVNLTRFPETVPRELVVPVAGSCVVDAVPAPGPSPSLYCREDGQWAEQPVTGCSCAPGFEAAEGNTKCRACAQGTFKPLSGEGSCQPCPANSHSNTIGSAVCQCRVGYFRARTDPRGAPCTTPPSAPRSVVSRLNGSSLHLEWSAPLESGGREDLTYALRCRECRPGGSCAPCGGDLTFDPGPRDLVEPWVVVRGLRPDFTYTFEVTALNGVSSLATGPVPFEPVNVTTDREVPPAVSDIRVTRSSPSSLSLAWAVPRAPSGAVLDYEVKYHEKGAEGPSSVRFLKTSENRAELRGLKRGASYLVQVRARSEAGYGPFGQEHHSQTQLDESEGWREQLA
ephrinB2 (Homo sapiens), sequence (P52799 28-229): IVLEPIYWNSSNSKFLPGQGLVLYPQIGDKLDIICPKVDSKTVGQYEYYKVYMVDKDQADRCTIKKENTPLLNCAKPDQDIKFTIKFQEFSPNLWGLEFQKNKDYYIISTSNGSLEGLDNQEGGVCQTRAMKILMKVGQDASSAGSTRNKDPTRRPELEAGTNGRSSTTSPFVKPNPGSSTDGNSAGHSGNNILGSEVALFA

In turn, “NiV-G-Fc, a fusion construct between the ectodomain of NiV-G and the Fc region of human IgG1 (from UniProt Q9IH62 71-602) (Fc fusion)” gave a Kd in experiment [1] of 0.06 nM.
Consider EphB4 (from UniProt P54760), for which the dissociation constant Kd in experiment [2] was 0.5 nM.
